Measured values taken from article PMC10992614, “Construction and optimization of a biocatalytic route for the synthesis of neomenthylamine from menthone” (Bioresources and Bioprocessing, 2023).

Tests used:
[1] = target: T1, ω-transaminase from Vibrio fluvialis JS17 (VfTA) (Vibrio fluvialis, UniProt F2XBU9); test: product formation by purified VfTA (GC); no product inhibition detected; format: biochemical
T1 sequence (F2XBU9 1-453): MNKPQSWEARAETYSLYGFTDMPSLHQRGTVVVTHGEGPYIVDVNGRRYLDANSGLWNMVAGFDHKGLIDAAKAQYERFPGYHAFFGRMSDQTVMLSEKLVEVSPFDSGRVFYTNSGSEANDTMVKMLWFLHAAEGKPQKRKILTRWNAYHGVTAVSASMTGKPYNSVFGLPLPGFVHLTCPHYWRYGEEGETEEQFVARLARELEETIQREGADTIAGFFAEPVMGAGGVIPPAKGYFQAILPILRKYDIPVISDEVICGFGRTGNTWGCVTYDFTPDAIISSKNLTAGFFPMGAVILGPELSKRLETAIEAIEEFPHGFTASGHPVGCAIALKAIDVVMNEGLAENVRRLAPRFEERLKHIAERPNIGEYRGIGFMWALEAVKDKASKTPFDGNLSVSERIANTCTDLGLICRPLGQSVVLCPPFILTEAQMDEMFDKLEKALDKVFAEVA

[2] = target: T1, ω-transaminase from Vibrio fluvialis JS17 (VfTA); test: enzyme kinetics (GC assay), product inhibition of VfTA; format: biochemical
[3] = substrate: CC(C)[C@@H]1CC[C@@H](C)CC1=O; test: steady-state kinetics with purified VfTA (KM, GC assay); format: biochemical, Vibrio fluvialis; details: pyridoxal-5'-phosphate (PLP)
[4] = substrate: C[C@H](N)c1ccccc1; test: purified protein; format: biochemical, Vibrio fluvialis; details: pyridoxal-5'-phosphate (PLP)

Molecule: CC(C)[C@@H]1CC[C@@H](C)C[C@@H]1N [(+)-neomenthylamine]
- product formation by purified VfTA (GC); no product inhibition detected [1]: transaminase (VfTA) from Vibrio fluvialis JS17 (PDB: 5ZTX) that can convert (−)-menthone into (+)-neomenthylamine successfully

Molecule: CC(=O)c1ccccc1 [Acetophenone]
- Ki [2]: 600 µM

B1: ω-transaminase from Vibrio fluvialis JS17 (VfTA) (Vibrio fluvialis) (protein)
chain: MNKPQSWEARAETYSLYGFTDMPSLHQRGTVVVTHGEGPYIVDVNGRRYLDANSGLWNMVAGFDHKGLIDAAKAQYERFPGYHAFFGRMSDQTVMLSEKLVEVSPFDSGRVFYTNSGSEANDTMVKMLWFLHAAEGKPQKRKILTRWNAYHGVTAVSASMTGKPYNSVFGLPLPGFVHLTCPHYWRYGEEGETEEQFVARLARELEETIQREGADTIAGFFAEPVMGAGGVIPPAKGYFQAILPILRKYDIPVISDEVICGFGRTGNTWGCVTYDFTPDAIISSKNLTAGFFPMGAVILGPELSKRLETAIEAIEEFPHGFTASGHPVGCAIALKAIDVVMNEGLAENVRRLAPRFEERLKHIAERPNIGEYRGIGFMWALEAVKDKASKTPFDGNLSVSERIANTCTDLGLICRPLGQSVVLCPPFILTEAQMDEMFDKLEKALDKVFAEVA
- Km [3]: 5000 ± 600 µM
- kcat/Km [3]: 3300 M⁻¹ s⁻¹
- Km [4]: 800 ± 100 µM
- kcat/Km [4]: 54400 M⁻¹ s⁻¹
